Measured values: patent US20160075790A1 (Bristol-Myers Squibb, published 2016)
“And” between values parts separate entries of the source, which are not always exact repeats. Equal values may be shown once.

B1: BMS2h-719-2 (other)
VH: EVQLLESGGGLVQPGGSLRLSCAASGFTFKRYEMMWVRQAPGKGLEWVSSISSDGSFTYYADSVKGRFTISRDNSKNTLYLQMNSLRAEDTAVYYCAEPFTEFDYWGHGTLVTVSS
B2: BMS2h-719-13 (other)
VH: EVQLLESGGGLVQPGGSLRLSCAASGFTFKRYEMMWVRQAPGKGLEWVSSISSDGSFTYYADSVKGRFTISRDNTKNTLYLQMNSLRAEDTAVYYCADPFTELDYWGHGTLVTVSS
B3: BMS2h-719-12 (other)
VH: EVQLLESGGGLVQPGGSLRLSCAASGFTFKRYEMMWVRQAPGKGLEWVSSISSDGSFTYYADSVKGRFTVSRDNSKNTLYLQMNSLRAEDTAVYYCADPFTEFDYWGQGTLVTVSS
B4: BMS2h-719-19 (other)
VH: EVQLLESGGGWVQPGGSLRLSCAASGFTFKRYEMMWVRQAPGKGLEWVSSISSDGSFTYYADSVKGRFTISRDNSKNTLYLQMNSLRAEDTAVYYCADPFTEFDYWGQGTLVTVSS
B5: BMS2h-719-17 (other)
VH: EVQLLESGGGLVQPGGSLRLSCAASGFTFKRYEMSWVRQAPGKGLEWVSSISSDGSFTYYADSVKGRFTISRDNSKNTLYLQMNSLRAEDTAVYYCADPFTEIDYWGQGTQVTVSS
B6: BMS2h-719-225 (other)
VH: EVQLLESGGGLVQPGGSLRLSCAASGFTFNTYEMQWVRQAPGKGLEWVSSISSDGSFTYYADSVKGRFTISRDNSKNTLYLQMNSLRAEDTAVYYCAEPFTEFDYWGHGTLVTVSS
B7: BMS2h-719-202 (other)
VH: EVQLLESGGGLVQPGGSLRLSCAASGFTFKKYEMMWVRQAPGKGLEWVSSISSDGSFTYYADSVKGRFTISRDNSKNTLYLQMNSLRAEDTAVYYCAEPFTEFDYWGHGTLVTVSS
B8: BMS2h-719-226 (other)
VH: EVQLLESGGGLVQPGGSLRLSCAASGFTFNKYEMMWARQAPGKGLEWVSSISSDGSFTYYADSVKGRFTISRDNSRNTLYLQMNSLRAEDTAVYYCAEPFTEFDYWGHGTLVTVSS
B9: BMS2h-503 (other)
VL: DIQMTQSPSSLSASVGDRVTITCRASHHIQRYLSWYQQKPGKAPKLLILWGSQLQSGVPSRFSGSGSGTDFTLTISSLQPEDFATYYCGQWWAPPPTFGQGTKVEIKR
B10: BMS2h-503-2 (other)
VL: DIQMTQSPSSLSASVGDRVTITCRASHDIQRYLSWYQQKPGKAPKLLILWGSQLQSGVPSRFSGSGSGTDFTLTISSLQPEDFATYYCGQWWAPPQTFGQGTKVEIKR
B11: BMS2h-503-1 (other)
VL: DIQMTQSPSSLSASVGDRVTITCRASHHIQRYLSWYQQKPGKAPKLLILWGSQLQSGVPSRFSGSGSGTDFTLTISSLQPEDFATYYCGQWWAPPQTFGQGTKVEIKR
B12: BMS2h-437-4 (other)
VL: DIQMTQSPSSLSASVGDRVTITCRASTPIGTMLDWYQQKPGKAPKLLIGHSSWLQSGVPSRFSGCGSGTDFTLTISSLQPEDFATYYCGQHVRPPATFGQGTKVEIKR
B13: BMS2h-572-635 (other)
VH: EVQLLESGGGLVQPGGSLRLSCAASGFTFNWELMGWARQAPGKGLEWVSGIEGPGDVTYYADSVKGRFTISRDNSKNTLYLQMNSLRAEDTAVYYCVKVGKDSKSDYRGQGTLVTVSS
B14: BMS2h-572-11 (other)
VH: EVQLLESGGGLVQPGGSLRLSCAASGFTFNWQLMGWVRQAPGKGLEWVSGIEGPGDVTYYADSVKGRFTISRDNSKNTLYLQMNSLRAEDTAVYYCVKVGKESNSDYRGQGTQVTVSS
B15: BMS2h-572-9 (other)
VH: EVQLLESGGGLVQPGGSLRLSCAASGFTFNWQLMGWVRQAPGKGLEWVSGIEGPGDVTYYADSVKGRFTISRDNSKNTLYLQMNSLRAEDTAVYYCAKVGKESNSDYRGQGTLVTVSS
B16: BMS2h-572-15 (other)
VH: EVRLLESGGGLVQPGGSLRLSCAASGFNFNWQLMGWIRQAPGKGLEWVSGIEGPGDVTYYADSVKGRFTISRDNSKNTLYLQMNSLRAEDTAVYYCAKVGKESNSDYRGQGTLVTVSS
B17: BMS2h-572-14 (other)
VH: EVQLLESGGGLVQPGGSLRLSCAASGFTFNWQLMGWVRQAPGKGLEWVSGIEGPGDVTYYADSVKGRFTISRDNTKNTLYLQMNSLRAEDTAVYYCVKVGKESNSDYRGQGTLVTVSS
B18: BMS2h-116-1314 (other)
VL: DIQMTQSPSSLSASVGDRVTITCRASQPIGPDLLWYRQKPGKAPKLLIYQTSILRSGVPSRFSGSGSETDFTLTISNLQPEDFATYYCQQYWAFPVTFGQGTKVVIKR
B19: BMS2h-116-1320 (other)
VL: DIQMTQSPSSLSAYVGDRVTITCRASQPIGPDLLWYQQKPGKAPKLLIYQTSILRSGVPSRFSGSGSETDFTLTISNLQPEDFAKYYCQQYWAFPVTFGQGTKVVIKR
B20: BMS2h-116-1319 (other)
VL: DIQMTQSPSSLSASVGDRVTITCRASQPIGPDLLWYQQKPGKAPKLLIYQTSIMRSGVPSRFSGSGSETDFTLTISNLQPEDFATYYCQQYWTFPVTFGQGTKVEIKR
B21: BMS2h-492-3 (other)
VL: DIQMTQSPSSLSATVGDRVTITCRASQAIETNLEWYQQKPGKAPKLLIYDASMLQSGVPSRFSGSGSGTDFTLTISSLQPEDFATYYCQQYDAYPPTFGQGTKVEIKR
B22: BMS2h-492-4 (other)
VL: DIQMTQSPSSLSASVGDRVTITCRASQAIEHNLEWYQQKPGKAPKLLIYDASMLQSGVPSRFSGRGSGTDFTLTISSLQPEDFATYYCQQYDAYPPTFGQGTKVEIKR
B23: BMS2h-494-4 (other)
VL: EIQMTQSPSSLSASVGDRVTMTCRASQSIDKDLEWYQQKPGKAPRLLIYSSSWLQRGVPSRFSGSGSGTDFTLTISSLRPEDFATYYCQQYFQYPPTLGQGTKVEIKR
B24: BMS2h-494-6 (other)
VL: DIQMTQSPPSLSASVGDRVTITCRASQSIDKDLEWYQQKPGKAPRLLIYSSSWLQRGVPSRFSGSGSGTDFTLTISSLQPEDFATYHCQQYFQYPPTFGQGTKVEIKR

Tests used:
[1] = molecular target: T1, human isoleucine zipper-CD40L (IZ-hCD40L) (human, UniProt P29965 113-261); test: cell-based or functional assay
T1 sequence: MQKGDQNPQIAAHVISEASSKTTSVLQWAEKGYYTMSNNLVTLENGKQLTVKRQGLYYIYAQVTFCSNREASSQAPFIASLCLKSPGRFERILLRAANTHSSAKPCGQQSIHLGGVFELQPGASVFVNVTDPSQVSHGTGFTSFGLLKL

[2] = molecular target: T2, human CD40L, membrane-bound on cells (human, UniProt P29965 1-261); test: cell-based or functional assay
T2 sequence: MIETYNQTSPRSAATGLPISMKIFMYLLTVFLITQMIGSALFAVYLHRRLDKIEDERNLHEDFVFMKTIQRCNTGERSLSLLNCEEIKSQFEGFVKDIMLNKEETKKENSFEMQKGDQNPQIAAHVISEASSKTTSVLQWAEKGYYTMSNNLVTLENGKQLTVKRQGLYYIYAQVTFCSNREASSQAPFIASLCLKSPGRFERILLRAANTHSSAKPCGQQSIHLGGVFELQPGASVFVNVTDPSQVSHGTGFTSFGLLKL

Row | Binder | hIZCD40L-driven Human B Cell Proliferation EC50 [1] | CHO-hCD40L-driven DC Activation IL-12 EC50 [2] | CHO-hCD40L-driven Human B Cell Proliferation EC50 [2] | T-B cell MLR EC50 [2]
1 | B1 | 82 nM | 196 nM | > 7000 nM | 
2 | B2 | 50 nM | 219 nM |  | 
3 | B3 | 358 nM | 266 nM |  | 
4 | B4 | 138 nM | 184 nM |  | 
5 | B5 | 132 nM | 113 nM | 236 nM and 268 nM | 
6 | B6 | 253 nM and 198 nM | 176 nM |  | 
7 | B7 | 29 nM | 79 nM |  | 
8 | B8 | 164 nM and 247 nM | 812 nM |  | 
9 | B9 | 4200 nM |  | > 7000 nM | 
10 | B10 | 44 nM | 1560 nM | 3000 nM | 
11 | B11 | 24 nM | 756 nM | 2300 nM | 
12 | B12 | 203 nM | 1330 nM | > 7000 nM | 
13 | B13 | 29 nM | 52 nM |  | 
14 | B14 | 140 nM |  | > 7000 nM | 
15 | B15 | 324 nM and 243 nM | > 2000 nM |  | 
16 | B16 | 168 nM | 876 nM | > 7000 nM | 
17 | B17 | 134 nM | 882 nM | > 7000 nM | 
18 | B18 | 41 nM | 664 nM |  | 1690 nM
19 | B19 | 20 nM | 32 nM | 138 nM | 191 nM
20 | B20 | 180 nM |  | > 7000 nM | 
21 | B21 | 1100 nM |  | > 7000 nM | 
22 | B22 | 1700 nM |  | > 7000 nM | 
23 | B23 | 590 nM |  | > 7000 nM | 
24 | B24 | 2000 nM |  | > 7000 nM | 
